Patent publication US20240000957A1 (published 2024)
*1 amine or outer side, *2 acyl side, *3 side chain or, on linkers, in order; H or OH if unused. Bridges are numbered along the chain shown (N, C = ends). Where no end group is shown, it is not given here. [ ]: non-standard residue; d: D form. TATA = O=C(CC[*:1])N1CN(C(=O)CC[*:2])CN(C(=O)CC[*:3])C1; 2Nal = N[C@@H](Cc1ccc2ccccc2c1)C(=O)O; βAla = NCCC(=O)O; Sar = CNCC(=O)O

Biological target: T1, Human EphA2 (Ecto), C-terminal polyHis (Human, UniProt P29317 24-537)
T1 construct: extracellular domain; R&D systems 3035-A2 or in-house
Assay: FP competition vs Reference Compound C

T1 sequence (P29317 24-537): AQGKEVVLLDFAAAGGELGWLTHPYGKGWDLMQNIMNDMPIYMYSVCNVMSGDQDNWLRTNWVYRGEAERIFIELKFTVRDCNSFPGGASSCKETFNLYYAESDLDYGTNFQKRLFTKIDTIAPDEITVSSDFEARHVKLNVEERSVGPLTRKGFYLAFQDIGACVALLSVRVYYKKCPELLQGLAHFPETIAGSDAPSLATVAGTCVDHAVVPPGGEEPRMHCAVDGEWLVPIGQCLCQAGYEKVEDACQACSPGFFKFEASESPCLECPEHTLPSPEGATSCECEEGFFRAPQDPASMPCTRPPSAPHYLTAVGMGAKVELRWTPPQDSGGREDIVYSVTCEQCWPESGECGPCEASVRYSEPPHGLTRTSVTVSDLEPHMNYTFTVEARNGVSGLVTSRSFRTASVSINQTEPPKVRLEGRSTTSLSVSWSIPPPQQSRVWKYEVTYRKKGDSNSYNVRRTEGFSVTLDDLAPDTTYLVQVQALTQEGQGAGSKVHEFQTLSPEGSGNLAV

| Binder | Ki [nM] |
| --- | --- |
| DLRCGGDPRCAYMNVCA (linker 4-10-16 via TATA) [Compound 18] | 70.8 |
| ACPLVNPLCLHPGWTCA (linker 2-9-16 via TATA; not fully specified (C-terminus)) [Compound 64] | 30 |
| ACPLVNPLCLHPGWRCA (linker 2-9-16 via TATA; not fully specified (C-terminus)) [Compound 55] | 20.6 |
| ACPLVNPLCLAPGWTCA (linker 2-9-16 via TATA; not fully specified (C-terminus)) [Compound 82] | 46.2 |
| ACPMVNPLCLHPGWICA (linker 2-9-16 via TATA; not fully specified (C-terminus)) [Compound 53] | 15.4 |
| ACPMVNPLCLHPGWTCA (linker 2-9-16 via TATA) [Compound 97] | 20 |
| ACPLVNPLCLHPGWICA (linker 2-9-16 via TATA; not fully specified (C-terminus)) [Compound 54] | 15.2 |
| ACPLVNPLCLVPGWSCA (linker 2-9-16 via TATA; not fully specified (C-terminus)) [Compound 57] | 35.4 |
| ACPLVNPLCLHPGWSCA (linker 2-9-16 via TATA; not fully specified (C-terminus)) [Compound 86] | 56.1 |
| ACPLVNPLCLEPGWTCA (linker 2-9-16 via TATA; not fully specified (C-terminus)) [Compound 84] | 53.9 |
| ACPLVNPLCLTPGWTCTNT (linker 2-9-16 via TATA; not fully specified (C-terminus)) [Compound 94] | 13.2 |
| ACVPDRRCAYMNVCA (linker 2-8-14 via TATA) [Compound 16] | 70 |
| TPRCPLVNPLCLMPGWTCA (linker 4-11-18 via TATA; not fully specified (C-terminus)) [Compound 81] | 9.8 |
| [βAla][Sar][Sar][Sar][Sar][Sar][Sar][Sar][Sar][Sar][Sar]ACVPDRRCAYMNVC (linker 13-19-25 via TATA; not fully specified (C-terminus); printed as (β-Ala)-Sar10-ACVPDRRCAYMNVC) [Compound 17] | 85 |
| Ac-CPLVNPLCLHPGWSCRGQ (linker 1-8-15 via TATA; not fully specified (C-terminus); printed as Ac-CPLVNPLCLHPGWSCRGQ) [Compound 88] | 1.64 |
| ACPLVNPLCLHPG[2Nal]SCRGQ (linker 2-9-16 via TATA; not fully specified (C-terminus); printed as ACPLVNPLCLHPG(2Nal)SCRGQ) [Compound 93] | 228 |
| ACMNDWWCAMGWKCA (linker 2-8-14 via TATA) [Compound 15] | 278 |
| ACPLVNPLCLEPGWTCAKR (linker 2-9-16 via TATA; not fully specified (C-terminus)) [Compound 85] | 10.9 |
